Measurements: the supplement of paper PMC11246515
± gives the standard deviation of the averaged measurements.

Assay: total protein half-life in vivo (active degradation + dilution); higher = more stable protein
[1] = E. coli NCM3722 delta-clpP delta-lon delta-hslV, growth: N-lim chemostat, doubling time 6 h
[2] = E. coli NCM3722 delta-clpP, growth: N-lim chemostat, doubling time 6 h
[3] = E. coli NCM3722 delta-hslV, growth: N-lim chemostat, doubling time 6 h
[4] = E. coli NCM3722 delta-lon, growth: N-lim chemostat, doubling time 6 h
[5] = E. coli NCM3722 delta-smpB, growth: N-lim chemostat, doubling time 6 h
[6] = wild type E. coli NCM3722, growth: C-lim chemostat, doubling time 3 h
[7] = wild type E. coli NCM3722, growth: C-lim chemostat, doubling time 6 h
[8] = wild type E. coli NCM3722, growth: C-lim chemostat, doubling time 12 h
[9] = wild type E. coli NCM3722, growth: N-lim chemostat, doubling time 6 h
[10] = wild type E. coli NCM3722, growth: N-lim chemostat, doubling time 12 h
[11] = wild type E. coli NCM3722, growth: P-lim chemostat, doubling time 6 h
[12] = wild type E. coli NCM3722, growth: P-lim chemostat, doubling time 12 h

Sequence	total protein half-life in vivo [1] [h]	total protein half-life in vivo [2] [h]	total protein half-life in vivo [3] [h]	total protein half-life in vivo [4] [h]	total protein half-life in vivo [5] [h]	total protein half-life in vivo [6] [h]	total protein half-life in vivo [7] [h]	total protein half-life in vivo [8] [h]	total protein half-life in vivo [9] [h]	total protein half-life in vivo [10] [h]	total protein half-life in vivo [11] [h]	total protein half-life in vivo [12] [h]
MKQTVAAYIAKTLESAGVKRIWGVTGDSLNGLSDSLNRMGTIEWMSTRHEEVAAFAAGAEAQLSGELAVCAGSCGPGNLHLINGLFDCHRNHVPVLAIAAHIPSSEIGSGYFQETHPQELFRECSHYCELVSSPEQIPQVLAIAMRKAVLNRGVSVVVLPGDVALKPAPEGATMHWYHAPQPVVTPEEEELRKLAQLLRYSSNIALMCGSGCAGAHKELVEFAGKIKAPIVHALRGKEHVEYDNPYDVGMTGLIGFSSGFHTMMNADTLVLLGTQFPYRAFYPTDAKIIQIDINPASIGAHSKVDMALVGDIKSTLRALLPLVEEKADRKFLDKALEDYRDARKGLDDLAKPSEKAIHPQYLAQQISHFAADDAIFTCDVGTPTVWAARYLKMNGKRRLLGSFNHGSMANAMPQALGAQATEPERQVVAMCGDGGFSMLMGDFLSVVQMKLPVKIVVFNNSVLGFVAMEMKAGGYLTDGTELHDTNFARIAEACGITGIRVEKASEVDEALQRAFSIDGPVLVDVVVAKEELAIPPQIKLEQAKGFSLYMLRAIISGRGDEVIELAKTNWLR	5.5 ± 0.51	5.2 ± 0.97	4.77 ± 0.08	5.321 ± 0.051	4.71 ± 0.4	3.19 ± 0.15	5.59 ± 0.21	11.2 ± 2.6	4.7 ± 0.064	7.734 ± 0.064	5.614 ± 0.02	11.6 ± 0.17
MKQTVYIASPESQQIHVWNLNHEGALTLTQVVDVPGQVQPMVVSPDKRYLYVGVRPEFRVLAYRIAPDDGALTFAAESALPGSPTHISTDHQGQFVFVGSYNAGNVSVTRLEDGLPVGVVDVVEGLDGCHSANISPDNRTLWVPALKQDRICLFTVSDDGHLVAQDPAEVTTVEGAGPRHMVFHPNEQYAYCVNELNSSVDVWELKDPHGNIECVQTLDMMPENFSDTRWAADIHITPDGRHLYACDRTASLITVFSVSEDGSVLSKEGFQPTETQPRGFNVDHSGKYLIAAGQKSHHISVYEIVGEQGLLHEKGRYAVGQGPMWVVVNAH	–	4.59 ± 0.99	4.79 ± 0.47	6.52 ± 0.2	4.87 ± 0.15	3.17 ± 0.23	–	11.1 ± 2	4.95 ± 0.27	9.37 ± 2.2	6.2 ± 2.5	–
MKRASLLTLTLIGAFSAIQAAWAVDYPLPPTGSRLVGQNQTYTVQEGDKNLQAIARRFDTAAMLILEANNTIAPVPKPGTTITIPSQLLLPDAPRQGIIVNLAELRLYYYPPGENIVQVYPIGIGLQGLETPVMETRVGQKIPNPTWTPTAGIRQRSLERGIKLPPVVPAGPNNPLGRYALRLAHGNGEYLIHGTSAPDSVGLRVSSGCIRMNAPDIKALFSSVRTGTPVKVINEPVKYSVEPNGMRYVEVHRPLSAEEQQNVQTMPYTLPAGFTQFKDNKAVDQKLVDKALYRRAGYPVSVSSGATPAASNAPSVESAQNGEPEQGNMLRVTQ	5.45 ± 0.37	5.31 ± 0.28	5.75 ± 0.64	5.59 ± 0.22	5.31 ± 0.5	3.12 ± 0.47	6.04 ± 1.4	12.4 ± 2.9	5.2 ± 0.094	9.08 ± 0.15	5.28 ± 0.24	11.2 ± 1.1
MKRAVITGLGIVSSIGNNQQEVLASLREGRSGITFSQELKDSGMRSHVWGNVKLDTTGLIDRKVVRFMSDASIYAFLSMEQAIADAGLSPEAYQNNPRVGLIAGSGGGSPRFQVFGADAMRGPRGLKAVGPYVVTKAMASGVSACLATPFKIHGVNYSISSACATSAHCIGNAVEQIQLGKQDIVFAGGGEELCWEMACEFDAMGALSTKYNDTPEKASRTYDAHRDGFVIAGGGGMVVVEELEHALARGAHIYAEIVGYGATSDGADMVAPSGEGAVRCMKMAMHGVDTPIDYLNSHGTSTPVGDVKELAAIREVFGDKSPAISATKAMTGHSLGAAGVQEAIYSLLMLEHGFIAPSINIEELDEQAAGLNIVTETTDRELTTVMSNSFGFGGTNATLVMRKLKD [P0A953]	5.27 ± 0.45	5.06 ± 0.069	4.81 ± 0.16	4.98 ± 0.26	4.81 ± 0.049	2.99 ± 0.039	6.06 ± 0.36	10.8 ± 0.81	4.78 ± 0.11	8.39 ± 0.45	5.89 ± 0.25	12.3 ± 0.21
MKRKLFWICAVAMGMSAFPSFMTQATPATQPLINAEPAVAAQTEQNPQVGQVMPGVQGADAPVVAQNGPSRDVKLTFAQIAPPPGSMVLRGINPNGSIEFGMRSDEVVTKAMLNLEYTPSPSLLPVQSQLKVYLNDELMGVLPVTKEQLGKKTLAQMPINPLFISDFNRVRLEFVGHYQDVCEKPASTTLWLDVGRSSGLDLTYQTLNVKNDLSHFPVPFFDPSDNRTNTLPMVFAGAPDVGLQQASAIVASWFGSRSGWRGQNFPVLYNQLPDRNAIVFATNDKRPDFLRDHPAVKAPVIEMINHPQNPYVKLLVVFGRDDKDLLQAAKGIAQGNILFRGESVVVNEVKPLLPRKPYDAPNWVRTDRPVTFGELKTYEEQLQSSGLEPAAINVSLNLPPDLYLMRSTGIDMDINYRYTMPPVKDSSRMDISLNNQFLQSFNLSSKQEANRLLLRIPVLQGLLDGKTDVSIPALKLGATNQLRFDFEYMNPMPGGSVDNCITFQPVQNHVVIGDDSTIDFSKYYHFIPMPDLRAFANAGFPFSRMADLSQTITVMPKAPNEAQMETLLNTVGFIGAQTGFPAINLTVTDDGSTIQGKDADIMIIGGIPDKLKDDKQIDLLVQATESWVKTPMRQTPFPGIVPDESDRAAETRSTLTSSGAMAAVIGFQSPYNDQRSVIALLADSPRGYEMLNDAVNDSGKRATMFGSVAVIRESGINSLRVGDVYYVGHLPWFERVWYALANHPILLAVLAAISVILLAWVLWRLLRIISRRRLNPDNE	6.42 ± 0.47	7.04 ± 0.67	6.15 ± 0.65	6.28 ± 0.15	5.904 ± 0.057	3.17 ± 0.033	6.1 ± 0.11	10.7 ± 1.2	5.8 ± 0.2	11.4 ± 0.44	6.3 ± 0.39	11.8 ± 0.31
MKRKTLPLLALVATTLFLIACDDRSDDLKAISKFKDLTPPRFSDVVSHQDDVSEEWSQVDYLSGPTLQVLRTRQSPDGCEDGSYYYLVDMQEKTVQPLMNALCIADNIKLEYQEVTDPYTKEKYFEYAHDGKLMGQLLIPSNPDNQE	–	–	–	–	–	–	1.71	–	–	–	–	–
MKRKVLLIPLIIFLAIAAALLWQLARNAEGDDPTNLESALIGKPVPKFRLESLDNPGQFYQADVLTQGKPVLLNVWATWCPTCRAEHQYLNQLSAQGIRVVGMNYKDDRQKAISWLKELGNPYALSLFDGDGMLGLDLGVYGAPETFLIDGNGIIRYRHAGDLNPRVWEEEIKPLWEKYSKEAAQ [P0AA86]	6.39 ± 0.1	–	–	–	6.09 ± 0.34	3 ± 0.084	6.112 ± 0.034	13.3 ± 1.2	6.16 ± 0.32	–	5.3	12.5 ± 1.7
MKRLHKRFLLATFCALFTATLQAADVTITVNGRVVAKPCTIQTKEANVNLGDLYTRNLQQPGSASGWHNITLSLTDCPVETSAVTAIVTGSTDNTGYYKNEGTAENIQIELRDDQDAALKNGDSKTVIVDEITRNAQFPLKARAITVNGNASQGTIEALINVIYTWQ	–	–	–	–	5.55	–	–	–	–	–	–	–
